Measurements: US20260152573A1 (ARGENX, published 2026)

Assays:
[1] = target: T1, human serum albumin (human, UniProt P02768 25-609); experiment: SPR Biacore 3000, HSA on chip, pH 5.5
T1 construct: Immobilised on SPR chips; also added in solution in the FcRn occupancy assays; also called HSA; humanSA

[2] = target: T1, human serum albumin; experiment: SPR Biacore 3000, HSA on chip, pH 7.4
[3] = target: T1, human serum albumin; experiment: SPR Biacore 3000, HSA on chip, ratio of R0 at pH 5.5 and pH 7.4
[4] = target: T1, human serum albumin; experiment: SPR Biacore 8K+ SCK, albumin on chip, pH 7.4
[5] = target: T1, human serum albumin; experiment: SPR Biacore, HSA coated, steady state, pH 7.4
[6] = target: T1, human serum albumin; experiment: SPR Biacore, HSA coated, kinetic fit, pH 5.5
[7] = target: T1, human serum albumin; experiment: SPR Biacore, HSA coated, kinetic fit, pH 7.4
[8] = target: T1, human serum albumin; experiment: SPR Biacore, HSA coated, steady state, pH 5.5

| Binder | R0 pH 5.5 [1] | koff [1] | R0 pH 7.4 [2] | koff [2] | R0 5.5/7.4 [3] | fold decrease in affinity compared to the parental Alb23 VHH fragment [4] | Kd [5] | Kd [6] | Kd [7] | Kd [8] |
| --- | --- | --- | --- | --- | --- | --- | --- | --- | --- | --- |
| TA-Fc-ABDEG-2H11 (Fc fusion, also called 2H11 parental (two-armed Fc-ABDEG-20GS-Cterm fusion); not shown: Fc-ABDEG domain) GGGGSGGGGSGGGGSGGGGSELQVVESGGGLVQAGGSLRLSCAASGRTFRSNTMGWFRQAPGKEREFVAAITWSGGTTYYADSVKGRFAISGDNAKNTVYLQMNSLKPEDTAVYYCAAEGPKWEPWNGIYHPADFGSWGQGTQVTVSS | 351 RU | 0.00016 s⁻¹ | 115 RU | 0.00072 s⁻¹ | 3 |  |  |  |  |  |
| 2H11-v3 fused at the C-terminus of Fc-ABDEG (two-armed) (Fc fusion, not shown: Fc-ABDEG domain) GGGGSGGGGSGGGGSGGGGSELQVVESGGGLVQAGGSLRLSCAASGRTFRSNTMGWFRQAPGKEREFVAAITWSGGTTYYADSVKGRFAISGDNAKNTVYLQMNSLKPEDTAVYYCAAEGAKWEPWNGIYHPADFGSWGQGTQVTVSS | 164 RU | 0.000135 s⁻¹ | 8.24 RU | 0.0029 s⁻¹ | 19.9 |  |  |  |  |  |
| 2H11-v12 fused at the C-terminus of Fc-ABDEG (two-armed) (Fc fusion, not shown: Fc-ABDEG domain) GGGGSGGGGSGGGGSGGGGSELQVVESGGGLVQAGGSLRLSCAASGRTFRSNTMGWFRQAPGKEREFVAAITWSGGTTYYADSVKGRFAISGDNAKNTVYLQMNSLKPEDTAVYYCAAEGPKWEPWNGIAHPADFGSWGQGTQVTVSS | 93.9 RU | 9.72e-05 s⁻¹ | 6.32 RU | 0.0012 s⁻¹ | 14.9 |  |  |  |  |  |
| 2H11-v15 fused at the C-terminus of Fc-ABDEG (two-armed) (Fc fusion, not shown: Fc-ABDEG domain) GGGGSGGGGSGGGGSGGGGSELQVVESGGGLVQAGGSLRLSCAASGRTFRSNTMGWFRQAPGKEREFVAAITWSGGTTYYADSVKGRFAISGDNAKNTVYLQMNSLKPEDTAVYYCAAEGPKWEPWNGIYHPAAFGSWGQGTQVTVSS | 235 RU | 0.00174 s⁻¹ | 0.635 RU | 0.0025 s⁻¹ | 370 |  |  |  |  |  |
| 2H11-v16 fused at the C-terminus of Fc-ABDEG (two-armed) (Fc fusion, not shown: Fc-ABDEG domain) GGGGSGGGGSGGGGSGGGGSELQVVESGGGLVQAGGSLRLSCAASGRTFRSNTMGWFRQAPGKEREFVAAITWSGGTTYYADSVKGRFAISGDNAKNTVYLQMNSLKPEDTAVYYCAAEGPKWEPWNGIYHPADAGSWGQGTQVTVSS | 8.91 RU | 0.00301 s⁻¹ | 0.571 RU | 0.00193 s⁻¹ | 16 |  |  |  |  |  |
| Alb23 F32A (VHH, VHH alone) VHH: EVQLLESGGGLVQPGGSLRLSCAASGFTFRSAGMSWVRQAPGKGPEWVSSISGSGSDTLYADSVKGRFTISRDNSKNTLYLQMNSLRPEDTAVYYCTIGGSLSRSSQGTLVTVSS |  |  |  |  |  | ≥ 10 fold |  |  |  |  |
| OA-Fc-ABDEG-Alb23-G53A (Fc fusion) DKTHTCPPCPAPELLGGPSVFLFPPKPKDTLYITREPEVTCVVVDVSHEDPEVKFNWYVDGVEVHNAKTKPREEQYNSTYRVVSVLTVLHQDWLNGKEYKCKVSNKALPAPIEKTISKAKGQPREPQVYTLPPSRDELTKNQVSLWCLVKGFYPSDIAVEWESNGQPENNYKTTPPVLDSDGSFFLYSKLTVDKSRWQQGNVFSCSVMHEALKFHYTQKSLSLSPGGGGGSGGGGSGGGGSGGGGSEVQLLESGGGLVQPGGSLRLSCAASGFTFRSFGMSWVRQAPGKGPEWVSSISASGSDTLYADSVKGRFTISRDNSKNTLYLQMNSLRPEDTAVYYCTIGGSLSRSSQGTLVTVSS Fc: DKTHTCPPCPAPELLGGPSVFLFPPKPKDTLYITREPEVTCVVVDVSHEDPEVKFNWYVDGVEVHNAKTKPREEQYNSTYRVVSVLTVLHQDWLNGKEYKCKVSNKALPAPIEKTISKAKGQPREPQVYTLPPSRDELTKNQVSLSCAVKGFYPSDIAVEWESNGQPENNYKTTPPVLDSDGSFFLVSKLTVDKSRWQQGNVFSCSVMHEALKFHYTQKSLSLSPG |  |  |  |  |  |  | 158 nM | 20.6 nM | 78.8 nM | 36.7 nM |
| OA-Fc-ABDEG-Alb23-S52A (Fc fusion) DKTHTCPPCPAPELLGGPSVFLFPPKPKDTLYITREPEVTCVVVDVSHEDPEVKFNWYVDGVEVHNAKTKPREEQYNSTYRVVSVLTVLHQDWLNGKEYKCKVSNKALPAPIEKTISKAKGQPREPQVYTLPPSRDELTKNQVSLWCLVKGFYPSDIAVEWESNGQPENNYKTTPPVLDSDGSFFLYSKLTVDKSRWQQGNVFSCSVMHEALKFHYTQKSLSLSPGGGGGSGGGGSGGGGSGGGGSEVQLLESGGGLVQPGGSLRLSCAASGFTFRSFGMSWVRQAPGKGPEWVSSIAGSGSDTLYADSVKGRFTISRDNSKNTLYLQMNSLRPEDTAVYYCTIGGSLSRSSQGTLVTVSS Fc: DKTHTCPPCPAPELLGGPSVFLFPPKPKDTLYITREPEVTCVVVDVSHEDPEVKFNWYVDGVEVHNAKTKPREEQYNSTYRVVSVLTVLHQDWLNGKEYKCKVSNKALPAPIEKTISKAKGQPREPQVYTLPPSRDELTKNQVSLSCAVKGFYPSDIAVEWESNGQPENNYKTTPPVLDSDGSFFLVSKLTVDKSRWQQGNVFSCSVMHEALKFHYTQKSLSLSPG |  |  |  |  |  |  | 27.3 nM | 34.2 nM | 167 nM | 49.5 nM |
| OA-Fc-ABDEG-Alb23-S52A/G53A (Fc fusion) DKTHTCPPCPAPELLGGPSVFLFPPKPKDTLYITREPEVTCVVVDVSHEDPEVKFNWYVDGVEVHNAKTKPREEQYNSTYRVVSVLTVLHQDWLNGKEYKCKVSNKALPAPIEKTISKAKGQPREPQVYTLPPSRDELTKNQVSLWCLVKGFYPSDIAVEWESNGQPENNYKTTPPVLDSDGSFFLYSKLTVDKSRWQQGNVFSCSVMHEALKFHYTQKSLSLSPGGGGGSGGGGSGGGGSGGGGSEVQLLESGGGLVQPGGSLRLSCAASGFTFRSFGMSWVRQAPGKGPEWVSSIAASGSDTLYADSVKGRFTISRDNSKNTLYLQMNSLRPEDTAVYYCTIGGSLSRSSQGTLVTVSS Fc: DKTHTCPPCPAPELLGGPSVFLFPPKPKDTLYITREPEVTCVVVDVSHEDPEVKFNWYVDGVEVHNAKTKPREEQYNSTYRVVSVLTVLHQDWLNGKEYKCKVSNKALPAPIEKTISKAKGQPREPQVYTLPPSRDELTKNQVSLSCAVKGFYPSDIAVEWESNGQPENNYKTTPPVLDSDGSFFLVSKLTVDKSRWQQGNVFSCSVMHEALKFHYTQKSLSLSPG |  |  |  |  |  |  | 298 nM | 47.7 nM | 204 nM | 65.9 nM |
| OA-Fc-ABDEG-Alb23-S52A/S101A (Fc fusion) DKTHTCPPCPAPELLGGPSVFLFPPKPKDTLYITREPEVTCVVVDVSHEDPEVKFNWYVDGVEVHNAKTKPREEQYNSTYRVVSVLTVLHQDWLNGKEYKCKVSNKALPAPIEKTISKAKGQPREPQVYTLPPSRDELTKNQVSLWCLVKGFYPSDIAVEWESNGQPENNYKTTPPVLDSDGSFFLYSKLTVDKSRWQQGNVFSCSVMHEALKFHYTQKSLSLSPGGGGGSGGGGSGGGGSGGGGSEVQLLESGGGLVQPGGSLRLSCAASGFTFRSFGMSWVRQAPGKGPEWVSSIAGSGSDTLYADSVKGRFTISRDNSKNTLYLQMNSLRPEDTAVYYCTIGGALSRSSQGTLVTVSS Fc: DKTHTCPPCPAPELLGGPSVFLFPPKPKDTLYITREPEVTCVVVDVSHEDPEVKFNWYVDGVEVHNAKTKPREEQYNSTYRVVSVLTVLHQDWLNGKEYKCKVSNKALPAPIEKTISKAKGQPREPQVYTLPPSRDELTKNQVSLSCAVKGFYPSDIAVEWESNGQPENNYKTTPPVLDSDGSFFLVSKLTVDKSRWQQGNVFSCSVMHEALKFHYTQKSLSLSPG |  |  |  |  |  |  | 579 nM | 95.6 nM | 501 nM | 124 nM |
| OA-Fc-ABDEG-Alb23-S101A (Fc fusion) DKTHTCPPCPAPELLGGPSVFLFPPKPKDTLYITREPEVTCVVVDVSHEDPEVKFNWYVDGVEVHNAKTKPREEQYNSTYRVVSVLTVLHQDWLNGKEYKCKVSNKALPAPIEKTISKAKGQPREPQVYTLPPSRDELTKNQVSLWCLVKGFYPSDIAVEWESNGQPENNYKTTPPVLDSDGSFFLYSKLTVDKSRWQQGNVFSCSVMHEALKFHYTQKSLSLSPGGGGGSGGGGSGGGGSGGGGSEVQLLESGGGLVQPGGSLRLSCAASGFTFRSFGMSWVRQAPGKGPEWVSSISGSGSDTLYADSVKGRFTISRDNSKNTLYLQMNSLRPEDTAVYYCTIGGALSRSSQGTLVTVSS Fc: DKTHTCPPCPAPELLGGPSVFLFPPKPKDTLYITREPEVTCVVVDVSHEDPEVKFNWYVDGVEVHNAKTKPREEQYNSTYRVVSVLTVLHQDWLNGKEYKCKVSNKALPAPIEKTISKAKGQPREPQVYTLPPSRDELTKNQVSLSCAVKGFYPSDIAVEWESNGQPENNYKTTPPVLDSDGSFFLVSKLTVDKSRWQQGNVFSCSVMHEALKFHYTQKSLSLSPG |  |  |  |  |  |  | 353 nM | 54.3 nM | 255 nM | 67.5 nM |
| OA-Fc-ABDEG-Alb23-S101T (Fc fusion) DKTHTCPPCPAPELLGGPSVFLFPPKPKDTLYITREPEVTCVVVDVSHEDPEVKFNWYVDGVEVHNAKTKPREEQYNSTYRVVSVLTVLHQDWLNGKEYKCKVSNKALPAPIEKTISKAKGQPREPQVYTLPPSRDELTKNQVSLWCLVKGFYPSDIAVEWESNGQPENNYKTTPPVLDSDGSFFLYSKLTVDKSRWQQGNVFSCSVMHEALKFHYTQKSLSLSPGGGGGSGGGGSGGGGSGGGGSEVQLLESGGGLVQPGGSLRLSCAASGFTFRSFGMSWVRQAPGKGPEWVSSISGSGSDTLYADSVKGRFTISRDNSKNTLYLQMNSLRPEDTAVYYCTIGGTLSRSSQGTLVTVSS Fc: DKTHTCPPCPAPELLGGPSVFLFPPKPKDTLYITREPEVTCVVVDVSHEDPEVKFNWYVDGVEVHNAKTKPREEQYNSTYRVVSVLTVLHQDWLNGKEYKCKVSNKALPAPIEKTISKAKGQPREPQVYTLPPSRDELTKNQVSLSCAVKGFYPSDIAVEWESNGQPENNYKTTPPVLDSDGSFFLVSKLTVDKSRWQQGNVFSCSVMHEALKFHYTQKSLSLSPG |  |  |  |  |  |  | 315 nM | 54.9 nM | 206 nM | 70.8 nM |
